Reference: the nanobody polyreactivity screen of Harvey et al. (2022)

Experiment: yeast display, Sf9 membrane polyspecificity reagent, FACS + sequencing; frameworks hold sequencing errors
Method in brief: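 Galactose induction of a Saccharomyces cerevisiae BJ5465 synthetic nanobody display library ran 36–48 hours. The cells were then stained for 1 hour at 4 °C with 10% biotinylated, detergent-solubilized Sf9 membrane reagent, pulled down on streptavidin microbeads and FACS-sorted into low and high (top ~1%) gates on expression and reagent-binding fluorescence. Labels for polyreactivity follow the gate of origin.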

Sequence | polyreactivity (PSR sort gate)
QVQHVESGGGIVQAGGSLRLSCAASGFTFWYYAMGWYRQAPGKERELVAVINTSGGSTYADSVKGRFTISRDNAKNTVFLQMNSLKPEDTAVYYCNKDFIYGYDAASYRPEYDYWGQGTQVTVSS | low polyreactivity
QVQLVESGGGLVQAGGSLRLICAASGSTFQDYGMGWYRQAPGKERELVAAITTGDITNYADSVKGRFTISRDNAKKTVYLQMNSLKAEDTAVYYCNAEPKFYPDAGDDYWGQGTQVTVSS | low polyreactivity
QVQLVESGGGIVQAGGSLRLSCAASGFTYWFYAMGWYRQAPGKERELVAAISRGGSTYYADSVKGRFTFSRDKAKNTVYLQMNSLKPEDTAVYYCAADFVHRGYYYWGQGTQVTVSS | high polyreactivity
QVQLVASGGGLVQAGGSLRLSCAASGSNFAYNGMGWYRLAPGKERELVAAMSWNGGTTYYADSVKGRFTISRDKAKKNVYLQRNSLKPEDTAVYYCATDSYYFREYDYWGQGTQVTVSS | low polyreactivity
QVQLVESGGGLVQAGGSLRLSCAASGSIFGYNAMGWYRQAPGKERELVAAISGGGGTYYADSVKGRFTISRDNAKNTVYLQMNSLKPEDTAVYYCATDRVHKWLFYGTYYRYEYWGQGTHVTVSS | low polyreactivity
QVQLVESGGGLVQAGGSLRLSCAASGFTLRYYAMGWYRQAPGKERELVATINRSGASTYYADSVKGRFTISRDNAKNTVYLQMNRLKPEDTAVYYCNTATSRAYRYDYWGQGTQVTVSS | high polyreactivity
QVQLVESGGGLVQAGGSLRLSCAASGSIFGTYAMGWYRQAPGKERELVAAITTSAGSTYYADSVKGRFTISRDNAKNTVYLEMNSLKPEDTAVYYCAKYAYTSVHSWYYYWGQGTQVTVSS | high polyreactivity
QVQLVESGGGLVQAGGSLRISCAASGRIFYVYAMGWYRQAPGKERELVAAISTGSPTYYADSVNGRFTISRDNAKNTVYLQMNSLKPEDTAVYFCATGSIHGDFWSFRHQYYYWGQGTQVTVSS | low polyreactivity
QVQLVESGGGLVQAGGSLRLSCAASGRIFSTYAMGWYRQAPGKERELVAAINSIGGRTYYADSVKGRFTISRDNAKNTVYLQMNSLKPEDTAVYYCAAGYRTRRGLGYYYWGQGTQVTVSS | high polyreactivity
QVQLVESGGGLVQAGGSLRLSCAASGRILSFYAMGWYRQAPGKEREFVATITWSGGSTYADSVKGRFTISRDNANNSVYLQMNSLKPEDTAVYYCNAELSNYKYDYWGQGTHVTVSS | low polyreactivity
QVQLVESGGGLVQAGGSLLLICAASGFIFVPYAMGWYRQAPGKEREFVATITWRGDSTYYADSVKGRFTISRDNAKNTVYLQMNSLKPEDTAVYYCAVYPIRLWAYDYWGQGTQVTVSS | low polyreactivity
QVQLVESGGGLVQAGGSLRLSCAASGRIFYVNAMGWYRQAPGKERELVAAIRSAGGTYYADSVKGRFTISRDNAKNTVYLEMNWLNPEDSAVYYCNADASYREYRLYLIEMDYLGQGTQVTVSS | high polyreactivity
QVQLVESGGGLVQAGGSLRLSCAASGRTFTSYVMGWYRQAPGKERELVAAISWSGDSTYYADSVKGRFTISRDNAKNTVYLQMNSLKPEDTAVDYCARVPPAAYVAYDYWGQGTQVTVSS | high polyreactivity
QVQLVESGGGLVQAGGSLRLSCAASGRTFIYNTMGGYRQAPGKERELVAAITGNGGSTYYADSVKGRFTISRDYEKNTVYFQMNSLKPEDTAVYYCNAVGFDQPRYYYWGQGTQVTVSS | high polyreactivity
QVQLVESGGGLVQAGGSLRLSCAASGGTVKYYAMGWSRQSPGKERELVAAITWSGGSTYYADSVKGRFTISRDNAKNTVYLQMNSLKPEDTAVYYCNAAYSQISFNYWGQGTQVTVSS | high polyreactivity
QVQLVESGGGLVQAGGSLRLSCAPSGFIFYTNAMGWYRQAPGKDRELVAAITCIGVSTYYADSVKGRFTISRDYAKNTVYLKMNSLKPEDTEVYYCAADRNFLIFTPDNLTMDYWGQGTQVTVSS | low polyreactivity

Sequence | polyreactivity (PSR sort gate)
LVQLVESGGGLVQAGGSLRLSCAASGFTFPDYAMGWYRPAPGKERELVAAISSDGSTYYADSVKGRFTISRDNAKNTVYLQMNSLKPEDTAVYYCAAYVVWLYGYDYWGQGTQVTVSS | low polyreactivity
QVQLEESGGGLVQPGGSLRLSCAASGIIFAYNAMGWNRQAPGKERELVATITDSGGTTSYADSVKGRFTISRDNAKNTVYLQMNRLKQEDTAVYYCAVLPVYWYWRNYVYLSGYDYWGQGTQVNVSS | low polyreactivity
QVQLVESGGGLVQAGGSLRLSCAASRRTFANYAMGWYRQAPGKERELVAAISRSGGSTYYADSVKGRFTISRDNAKNSVYLQMKSLKPEDTAVYYCAARYVRQYYRAEDYWGQGTHVTVSS | high polyreactivity
QVKLVESGRGLVQAGGSLRLSCAASGRIFTNNAMGRYRPATGKERELVAAINVSGGRTYYADSVKGRFTISRENAKNTVYLQMISLKPDDTAVYYCNKVKETYMDYWGQGTQVTVSS | high polyreactivity
QVQLQESGGGLVQAGGSLRMICAASGYISACRQMGWYRKAPGKEREFVATINGGATTNYADSVKGRFTISRDNAKNSVYLQMNSLKPEDTAVYYCAAVIWYVQDYTYWGQGAQVTVSS | high polyreactivity
QVQLVESGGGLVQAGGSLRFSCAASGFTFTVYAMGWYRQAPGKGRELVAAISWNGGSTYYADSVKGRFTISRDNATNTDYLQRNSLKPEDTAVYYCNKYYYRGVRYYRDHDYWGQGTQVTVSS | high polyreactivity
QVQLVESGGGLVQAGGSLRLSCAASGSIYGGYAMGWYRQAPGKEREFVAAISRSGSSTYYADSVKGRFTISRDNAKNTVYLQMNSLKPEDTAVYSCAARYAGKAPGYRRYDYWGQGTQVTVSS | high polyreactivity
QVQLVESGGGLVQAGGSLRLSCAASGSIISAYVMGWYRQAPGKERELVAAITRSGGSTYYADSVKGRFTISRDNAKNTVYLQMNSLTPEDTAVYYCAAKSIIRPYAPRRDDMDYWGQGTQVTVSS | low polyreactivity
QVQLVESGGGLVQAGGSLRLSCAASGRTFYVYAMGWYRQAPGKERELVASISWIGDDTYYADSVKGRFTISRDNAKNTVYLQMNSLKPEDTAVYYCAVLVLGDYGYEYWGQGTQVTVSS | high polyreactivity
QVQLVESGGGLVQAGGSLRLSCAASGITFSWYAMGWYRQAPGKEREFVATISASGGSTYYADSVKGRFTISRDNAKNTVYLQMNSLKAEDTAVYYCAAVIWYRNGARGTFDYWGQGTQETVSS | high polyreactivity
QVQLVESGGGLVQAGGSLRLSCAASGRTFGVNAMGWYRQAPRKERELVARIRVSGGRTYYADSVKGRFTISRDNAKNSVYLLMNSLKPEDTAVYYCNAGDTYNRVIWPYYYCGQGTQVTVSS | high polyreactivity
QVQLVESGGGLVQAGGSLRLSCDASGSTFSYYAMGWYRQAPGKERDLVAAISSSGVRTYYADSVKGRFTISRDNAKNTVYLQMNSQKPEDTAVYYCAAGSRRGWLYRNRLWADYDYWGQGTQVTVSS | high polyreactivity
QVQLVDSGGGLVQAGGSLRLSCAASGFIFPSYVMGWYRQAPGKERELVATISRTGGSTYYADSVKGRYTISRDNAKNTVYLQMNSLKPEYTAVYFCAAYRYSYLQLMDYWGQGTQVTVSS | high polyreactivity
QVKLVESGAGLVHAGGSLRLSCAASGFIFFYYAMGRYRQAPGKERYLVATISANGGNTYYADSVKGRFTISRDNAKNTVYLQMNRLKPEDTAVYYCARYTWYLRDWQWYYWGDEDYWGQGTQVTVSS | high polyreactivity
QVQLVESGGGLVQAGGSLRLSCAASGFTFLYNAMGWSRQAPGKERELVASINSGGSTNYADSVKGRFTISRDNAKNTVYLQMNSLKPEDTAVYYFNAKRHVRKGDYWGQGTQVTVSS | low polyreactivity
